Data published in patent US20260001937A1, “NOVEL RECOMBINANT FIBRINOGEN VARIANTS FOR FIBRIN SEALANTS FOR SURGICAL WOUND CARE” (Julius-Maximilians-Universität Würzburg, priority 2022, published 2026).

Assays:
ExpiCHO-S cells = assay: α-chain degradation of recombinant fibrinogen during CHO cell expression (SDS-PAGE, in-gel digest MS); format: cell-based, Chinese hamster; details: no protease inhibitor added
Description: Fibrinogen variants were expressed according to the user manual (Thermo Scientific, Waltham, USA). Briefly, ExpiCHO-S™ cells (Thermo Scientific, Waltham, USA) were cultured to a final density of 10×10^6 cells/mL. Plasmids encoding for the different fibrinogen variants (0.8 μg/mL of culture) as well as ExpiFectamine™ CHO (Thermo Scientific, Waltham, USA) were diluted in 5 mL of cold OptiPro™ medium (Thermo Scientific, Waltham, USA) and incubated for 5 min at RT. The ExpiFectamine™ CHO/DNA complex was transferred to the shaker flask and incubated at 37° C. and 8% CO2 and 130 rpm. After 24 h of incubation, ExpiFectamine™ CHO Enhancer and ExpiFectamine™ CHO Feed (Thermo Scientific, Waltham, USA) were added to the culture flask. The culture flasks were transferred to an incubator at 32° C. and 8% CO2 with shaking at 130 rpm. This step was repeated after 4 days of incubation. After another incubation step of up to 7 days at 32° C. and 8% CO2 and 130 rpm cells were harvested and centrifuged at 3000 rpm for 15 minutes. […]
Purified proteins and conjugates were analyzed using Tris-glycine SDS-PAGE either with or without the addition of β-mercaptoethanol as described before.58 Gels were stained with Coomassie Brilliant Blue G250 and documented using FluorChem FC2 imaging system (Protein Simple, Santa Clara, USA). […]

thrombin = thrombin (Homo sapiens, UniProt P00734); assay: Thrombin-catalyzed fibrin polymerization, turbidity at 350 nm; format: biochemical; details: fibrinogen 0.1 mg/mL, thrombin 0.05 U/mL
Description: FIG. 26: Thrombin-catalyzed fibrin polymerization. Polymerization of fibrinogen (0.1 mg/mL) was initiated by the addition of thrombin (0.05 U/mL), factor XIIIa (Fibrogammin®, CSL Behring) (50 mU/ml) as well as CaCl2 (10 mM). The change in turbidity at 350 nm was followed with time (0-3600 sec). Representative polymerization curves of plasma Fibrinogen (square) and His-rFbgH433R435 (triangle).
Turbidity experiments were conducted on a Tecan Infinite M Plex plate reader at 37° C. A 96-well plate with a final volume of 100 μl per well was used and was experiments were performed in triplicate. The Thrombin-catalyzed fibrin polymerization of fibrinogen (0.1 mg/mL) was initiated by the addition of thrombin (0.05 U/mL), factor Xllla (Fibrogammin®, CSL Behring; 50 mU/ml) as well as CaCl2 (10 mM). The change in turbidity at 350 nm was followed over time (0-3600 sec).

FXIIIa = biological target: T1, FXIIIa (Homo sapiens, UniProt P00488); assay: FXIIIa-catalyzed cross-linking of fibrin (SDS-PAGE, reducing); format: biochemical
T1 construct: purchased CSL Behring Fibrogammin
T1 sequence (P00488 39-732 limits assumed): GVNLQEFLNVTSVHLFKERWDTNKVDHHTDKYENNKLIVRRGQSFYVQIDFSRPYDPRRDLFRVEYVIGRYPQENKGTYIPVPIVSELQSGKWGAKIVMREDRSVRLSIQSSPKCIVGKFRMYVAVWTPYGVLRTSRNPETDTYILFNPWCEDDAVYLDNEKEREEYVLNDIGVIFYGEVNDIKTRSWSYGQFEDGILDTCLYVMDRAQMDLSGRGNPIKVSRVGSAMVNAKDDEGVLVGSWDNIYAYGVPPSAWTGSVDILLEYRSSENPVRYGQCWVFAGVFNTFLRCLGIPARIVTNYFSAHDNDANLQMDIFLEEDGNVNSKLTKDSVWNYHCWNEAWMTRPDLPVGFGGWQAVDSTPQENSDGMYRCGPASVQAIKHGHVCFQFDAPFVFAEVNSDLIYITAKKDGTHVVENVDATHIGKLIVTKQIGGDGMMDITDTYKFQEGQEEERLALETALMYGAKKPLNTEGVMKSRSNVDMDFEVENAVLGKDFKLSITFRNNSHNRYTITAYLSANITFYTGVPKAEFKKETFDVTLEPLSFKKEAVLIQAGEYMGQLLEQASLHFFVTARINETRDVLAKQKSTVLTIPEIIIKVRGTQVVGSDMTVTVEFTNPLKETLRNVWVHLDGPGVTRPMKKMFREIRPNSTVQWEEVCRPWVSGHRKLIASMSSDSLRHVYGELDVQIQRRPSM
Description: FIG. 27: FXIIIa-catalyzed cross-linking of fibrinogen. Crosslinking of His-rFbgH433R435 by rFXIIIa was examined with SDS-PAGE, under reducing conditions. Fibrinogen (0.1 mg/mL) was mixed with FXIIIa (0.5 mU/mL) and thrombin (0.05 U/mL), and the reaction was incubated for the specified time at 37° C. The reduced fibrin chains (α, β, γ, cross-linked γ-γ dimer) are indicated on the right side of the gel.
To examine cross-linking of fibrin, fibrinogen (0.1 mg/mL) was incubated at 37° C. with FXIIIa ([…]) and human-thrombin (final concentration, 0.05 U/mL) in Tris-buffer and CaCl2 (10 mM). The reactions were stopped at various times by addition of an equal volume of sodium dodecyl sulfate (SDS) sample buffer with 2-mercaptoethanol and incubation (5 min) at 90° C. Samples were separated on SDS-polyacrylamide gel electrophoresis (SDS-PAGE) and stained with Coomassie brilliant blue.

His-rFbgH433R435: Aα, Bβ- and γ-chain fibrinogen; α-chain L433H, T435R (SEQ ID 79), γ-chain K88H, K111H, K382H, K399H (SEQ ID 80)
α-chain degradation during CHO cell protein expression (ExpiCHO-S cells): not detectable
thrombin-induced fibrin polymerization compared with control (pFbg) (thrombin; factor XIIIa 50 mU/ml, CaCl2 10 mM, 37° C., 0-3600 sec): slightly reduced
absorption in fibrin polymerization compared with control (pFbg) (thrombin; turbidity 350 nm): comparable
lag time of fibrin polymerization compared with control (pFbg) (thrombin; turbidity 350 nm): similar
formation of functional fibrin gels (FXIIIa; conclusion from polymerization and cross-linking experiments): forms functional fibrin gels
incubation time after which cross-linked γ-γ-dimer bands were visible (FXIIIa; fibrinogen 0.1 mg/mL, FXIIIa 0.5 U/mL, thrombin 0.05 U/mL, CaCl2 10 mM, 37° C.): 5 min
